Here are results for six molecules from publication PMC4041471, “Cas6 specificity and CRISPR RNA loading in a complex CRISPR-Cas system” (Nucleic Acids Research, 2014).

In series [1] the target is Recombinant Cas6-1 (Sso1437) (S. solfataricus) (UniProt Q97Y96). As to the kind of experiment: SEC; recombinant Cas6-1 alone on Superdex 200 in GF buffer (20 mM sodium phosphate pH 7.5, 250 mM NaCl, 5 mM EDTA, 0.5 mM DTT). For orientation: Size exclusion chromatography separates by hydrodynamic size, large species first.
Series [2] deals with T1, Cas6-1 (Saccharolobus/Sulfolobus solfataricus P2, UniProt Q97Y96 1-287).
T1 sequence: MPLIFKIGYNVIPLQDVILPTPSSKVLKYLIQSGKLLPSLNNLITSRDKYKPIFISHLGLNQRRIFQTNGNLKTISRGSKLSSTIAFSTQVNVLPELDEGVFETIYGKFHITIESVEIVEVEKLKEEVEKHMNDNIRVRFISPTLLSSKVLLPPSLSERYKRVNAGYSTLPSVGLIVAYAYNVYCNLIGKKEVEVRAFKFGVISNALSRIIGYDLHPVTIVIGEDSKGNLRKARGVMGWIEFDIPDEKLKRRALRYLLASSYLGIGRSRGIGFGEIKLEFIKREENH
As to the kind of experiment: fluorescence quenching; 25 C; apparent Kd, fit with variable Hill coefficient; EMSA: NR buffer (composition not in material) with 2 uM BSA, 0.5 nM RNA (legend: 1 nM), 15 min at 20 C, 6% native PAGE in 1x TBE; fluorescence quenching at 25 C, buffer not in material. Conditions: protein: recombinant; chain copies: 2; label: 5'-FAM. (In general: Mobility shift assays separate free from complexed probe on a gel.)

The target in series [3] is T1, Cas6-1. As to the kind of experiment: fluorescence quenching; 25 C; apparent Kd, fit with variable Hill coefficient; partial cleavage not ruled out; EMSA: NR buffer (composition not in material) with 2 uM BSA, 0.5 nM RNA (legend: 1 nM), 15 min at 20 C, 6% native PAGE in 1x TBE; fluorescence quenching at 25 C, buffer not in material. Conditions: protein: recombinant; chain copies: 2; label: 5'-FAM.

Series [4] concerns the target T1, Cas6-1. The series can be described thus: EMSA; 20 C; apparent Kd, no intermediate bands; EMSA: NR buffer (composition not in material) with 2 uM BSA, 0.5 nM RNA (legend: 1 nM), 15 min at 20 C, 6% native PAGE in 1x TBE; fluorescence quenching at 25 C, buffer not in material. The following applies: protein: recombinant; chain copies: 2; label: 5'-32P.
Series [5] concerns the molecule itself. As to the kind of experiment: SEC; S. solfataricus cell lysate on Superdex 200 in GF buffer (20 mM sodium phosphate pH 7.5, 250 mM NaCl, 5 mM EDTA, 0.5 mM DTT); 2 ml fractions analysed by western blotting.
The target of series [6] is T1, Cas6-1. As to the kind of experiment: EMSA; 20 C; apparent Kd, intermediate shifted species; EMSA: NR buffer (composition not in material) with 2 uM BSA, 0.5 nM RNA (legend: 1 nM), 15 min at 20 C, 6% native PAGE in 1x TBE; fluorescence quenching at 25 C, buffer not in material. Conditions: protein: recombinant; chain copies: 2; label: 5'-32P.

A word on the stoichiometry N: it is the number of molecules, sites or subunits per partner or assembly. As for “Recombinant Cas6-1 (Sso1437) (from UniProt Q97Y96 1-287) (enzyme)”, the stoichiometry N in series [1] worked out at 2. Turning to UGAUAAUCUCUUAUAGA (ssRNA, 3'-phosphate) [FAM-CDproduct RNA], the Kd in series [2] is ~14 nM.

On to UGAUAAUCUCUUAUAGAAUUGAAAG (ssRNA) [FAM-CD repeat RNA], for which the Kd in series [3] is ~14 nM. As for GAUUAAUCCCAAAAGGAAUUGAAAG (ssRNA) [AB-repeat RNA (32P)], the Kd in series [4] amounted to 350 nM.

B1: Cmr7 (Sso1986) subunit of CMR, free protein in the lysate (natural protein, UniProt Q97WX5 1-197, looked up)
chain: MTSGAGWEEQVFLPITNSISSEDNNQIKIGSSVSIEYNQNGQHVSQIDDKGLHNILVLTGYAIDESTGELVPTFDPCDYVKGILISGKILKGNHFKIIGIPSNKLYIIRKKDVHGNITFSLPIKNFNTGTYQVDLRDKVTSFVSLDRDVAKTIVDNVLAKIYAKIYNSLNKEQKDKLYRDVEEIFNYYSIKSLKSNP
notes: Cmr7 (Sso1986), subunit of the CMR complex of Sulfolobus solfataricus; also called dimeric Cmr7 protein; source: endogenous, S. solfataricus lysate
For B1, the “stoichiometry N” value in series [5] was determined as 2. Regarding GAUAAUCUCUUAUAGAAUUGAAAG (ssRNA) [CD-repeat RNA (32P)], the Kd in series [6] is ~16 nM.
